Experiment [1] deals with T1, recombinant human Factor VIIa (human, UniProt P08709 61-212; P08709 213-466).
T1 construct: Immobilized directly on microtiter plates at 2 ug/ml; also called FVIIa
T1 sequence (looked up) 1: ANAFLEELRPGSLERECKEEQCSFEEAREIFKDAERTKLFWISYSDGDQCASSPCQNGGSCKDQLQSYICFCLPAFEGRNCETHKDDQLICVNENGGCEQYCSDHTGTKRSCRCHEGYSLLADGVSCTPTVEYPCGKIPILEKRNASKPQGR
T1 sequence (looked up) 2: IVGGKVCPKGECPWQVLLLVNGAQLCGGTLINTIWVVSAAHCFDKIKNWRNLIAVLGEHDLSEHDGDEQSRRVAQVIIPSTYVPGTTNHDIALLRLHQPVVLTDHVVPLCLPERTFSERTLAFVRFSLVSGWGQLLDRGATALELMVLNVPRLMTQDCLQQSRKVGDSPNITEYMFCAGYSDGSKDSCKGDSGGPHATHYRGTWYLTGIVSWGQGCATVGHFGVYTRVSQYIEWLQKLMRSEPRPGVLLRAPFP
The experiment is described as follows: phage binding to coated wells.

A further experiment deals with T2, BSA (UniProt P02769 25-607).
T2 construct: Control coating; also called bovine serum albumin
T2 sequence (P02769 25-607 limits assumed): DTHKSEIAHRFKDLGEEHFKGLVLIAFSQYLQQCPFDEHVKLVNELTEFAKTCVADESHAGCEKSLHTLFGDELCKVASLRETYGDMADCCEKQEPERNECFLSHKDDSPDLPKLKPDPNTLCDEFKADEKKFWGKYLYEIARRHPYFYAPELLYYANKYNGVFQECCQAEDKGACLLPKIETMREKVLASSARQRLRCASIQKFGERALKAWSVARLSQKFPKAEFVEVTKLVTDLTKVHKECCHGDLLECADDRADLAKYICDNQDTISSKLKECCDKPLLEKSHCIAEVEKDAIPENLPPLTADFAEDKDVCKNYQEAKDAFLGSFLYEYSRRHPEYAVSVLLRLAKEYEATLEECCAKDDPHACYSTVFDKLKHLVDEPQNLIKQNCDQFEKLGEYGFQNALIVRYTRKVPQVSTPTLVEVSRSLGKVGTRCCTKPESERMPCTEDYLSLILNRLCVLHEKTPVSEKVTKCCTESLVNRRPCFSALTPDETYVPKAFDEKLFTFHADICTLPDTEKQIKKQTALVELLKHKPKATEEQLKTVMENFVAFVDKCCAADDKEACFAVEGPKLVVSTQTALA
As to the kind of experiment: phage binding to coated wells.

Experiment [2] has as its target T3, recombinant human Factor VIIa (human, UniProt P08709 61-212; P08709 213-466).
T3 chain 1: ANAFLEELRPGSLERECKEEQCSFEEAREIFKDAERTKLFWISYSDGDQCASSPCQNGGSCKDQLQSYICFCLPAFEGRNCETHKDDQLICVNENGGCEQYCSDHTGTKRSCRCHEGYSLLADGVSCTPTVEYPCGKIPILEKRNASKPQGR
T3 chain 2: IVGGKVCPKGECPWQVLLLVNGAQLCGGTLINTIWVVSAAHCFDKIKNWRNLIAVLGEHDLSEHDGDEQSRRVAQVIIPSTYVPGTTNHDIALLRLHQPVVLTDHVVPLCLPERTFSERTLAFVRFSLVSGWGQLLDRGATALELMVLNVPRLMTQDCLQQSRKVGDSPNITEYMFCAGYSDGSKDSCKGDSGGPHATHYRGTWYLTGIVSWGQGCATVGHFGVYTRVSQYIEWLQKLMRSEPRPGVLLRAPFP
The experiment is described as follows: competition ELISA. For orientation: ELISA stands for enzyme-linked immunosorbent assay.

Experiment [3] concerns the target T1, recombinant human Factor VIIa. As to the kind of experiment: FVIIa Binding ELISA, competition with 20 nM TF147b on immobilized FVIIa. How it is done: FVIIa Binding ELISA—The ability of peptides to compete with biotinylated versions of TF76 (e.g. TF147b, or other peptides described herein that could be biotinylated as described) for binding to FVIIa was monitored using a FVIIa Binding ELISA or a TF-FVIIa Binding ELISA. Microtiter plates were coated overnight with 2 μg/ml recombinant human FVIIa or 2 μg/ml TF₁₋₂₄₃ (Paborsky, L. R. et al. (1991) J. Biol. Chem. 266: 21911) in 50 mM ammonium bicarbonate pH 9 at 4° C.; all other steps were performed at room temperature. Plates were then blocked with 1% BSA in Assay Buffer (50 mM HEPES, pH 7.2, 5 mM CaCl₂, 150 mM NaCl). […] The microtiter plate was washed 3 times with Assay Buffer plus 0.05% Tween 20 and the biotinylated-peptide bound was detected with a Streptavidin/HRP conjugate (Streptavidin-POD, Roche Molecular Biochemicals). The amount of HRP bound was measured using ABTS/H₂O₂ substrate (Kirkegaard and Perry Laboratories) and monitoring the absorbance at 405 nm. The absorbance at 405 nm was plotted versus the concentration of peptide originally added to the well. Sigmoidal curves were fit to a four parameter equation by nonlinear regression analysis (Marquardt, J. Soc. Indust. Appl. Math. 11:431-441 (1963); the concentration of each peptide required to give a half-maximal signal in the assay was calculated from the curves and is referred to as the IC₅₀ value. […]

Positions of bridges follow the written chain, without caps; N, C: chain ends. No end group written: not given here.

Usually IC50 stands for the concentration needed to halve the response being measured.

B1: Phage bearing the TF56 peptide sequence EAALCDDPRLDRWYCIFAGE (Pool E clone, polyvalent phage display) (peptide)
peptide: EAALCDDPRLDRWYCIFAGE
modifications: not fully specified (bridges); cysteine pairing not given here; also: displayed on phage, coat protein fusion partner not given here
notes: also called this clone
Turning to B1, the binding result was “binds” in experiment [1] and “no binding” in the experiment with BSA. As to Ac-ALCDDPRVDRWYCQFVEG-NH2 (disulfide 3-13 (inferred)) [peptide TF76 (Ac-ALCDDPRVDRWYCQFVEG-NH2)], the IC50 in experiment [2] came to 21 nM.

SQAQRRAVGALCDNPRIDRWYCQFVEGGGGSSG (Fc fusion, cysteine pairing not given here; also: fused to human IgG1 Fc, dimer, not shown: Fc portion of the human IgG1) [TF151-Fc fusion]: the IC50 in experiment [3] is 3 nM.

These data come from patent US20030119727A1 (Genentech, published 2003).
